Assay results reported in paper PMC4063868.

Biological target: histones (chicken (endogenous in LMH))
Test: high-salt co-extraction with histones from chromatin; LMH cells 48 h post-transfection; chromatin pelleted and incubated in 50 mM Tris-HCl pH 8.0, 2.5 M NaCl, 0,05% NP40 for 30 min at 4°C; supernatant (histones fraction) on 10% SDS-PAGE, colloidal coomassie blue and immunoblot with anti-VP22 L13a

“VP22 of Marek's disease virus tagged with eGFP at its C-terminus (natural protein)” gave a fold less VP22 in the histone extract than from peGFP-UL49 cells of 4.5 fold.
